Results as given in patent US20200262873A1.
Where a chain is given by its changes, count along the chain named.

B1: Recombinant type immunoglobulin κ light chain binding protein KBP0 (designed binder)
chain: KETPETPEEPKEEVTIKVNLIFADGKTQTATFKGTFEEATAEAYRYADLLAKVNGEYTADLEDGGYTINIKFAGKKETPETPEEPKEEVTIKVNLIFADGKTQTATFKGTFEEATAEAYRYADLLAKVNGEYTADLEDGGYTINIKFAGKKETPETPEEPKEEVTIKVNLIFADGKTQTATFKGTFEEATAEAYRYADLLAKVNGEYTADLEDGGYTINIKFAGKKETPETPEEPKEEVTIKVNLIFADGKTQTATFKGTFEEATAEAYRYADLLAKVNGEYTADLEDGGYTINIKFAGK
B2: Recombinant immunoglobulin κ light chain binding protein KBP9 (designed binder)
chain: B1 chain with E42K, E117K, E192K, E267K
B3: Recombinant immunoglobulin κ light chain binding protein KBP10 (designed binder)
chain: B1 chain with Y57H, Y132H, Y207H, Y282H
B4: Recombinant immunoglobulin κ light chain binding protein KBP11 (designed binder)
chain: B1 chain with I70H, I145H, I220H, I295H
B5: Recombinant immunoglobulin κ light chain binding protein KBP12 (designed binder)
chain: KETPETPEEPKEEVTIKVNLIFADGRTQTATFKHRFEEATAKAYRYADLLAKVQGEYTADLEDGGYTINIKFAGKKETPETPEEPKEEVTIKVNLIFADGRTQTATFKHRFEEATAKAYRYADLLAKVQGEYTADLEDGGYTINIKFAGKKETPETPEEPKEEVTIKVNLIFADGRTQTATFKHRFEEATAKAYRYADLLAKVQGEYTADLEDGGYTINIKFAGKKETPETPEEPKEEVTIKVNLIFADGRTQTATFKHRFEEATAKAYRYADLLAKVQGEYTADLEDGGYTINIKFAGK
B6: Recombinant immunoglobulin κ light chain binding protein KBP13 (designed binder)
chain: B5 chain with H34G, Y57H, H109G, Y132H, H184G, Y207H, H259G, Y282H
B7: Recombinant immunoglobulin κ light chain binding protein KBP14 (designed binder)
chain: B5 chain with F32H, H34G, F107H, H109G, F182H, H184G, F257H, H259G
B8: Recombinant immunoglobulin κ light chain binding protein KBP1 (designed binder)
chain: B1 chain with I16H, I91H, I166H, I241H
B9: Recombinant immunoglobulin κ light chain binding protein KBP2 (designed binder)
chain: B1 chain with V18H, V93H, V168H, V243H
B10: Recombinant immunoglobulin κ light chain binding protein KBP3 (designed binder)
chain: B1 chain with L20H, L95H, L170H, L245H
B11: Recombinant immunoglobulin κ light chain binding protein KBP4 (designed binder)
chain: B1 chain with Q28H, Q103H, Q178H, Q253H
B12: Recombinant immunoglobulin κ light chain binding protein KBP5 (designed binder)
chain: B1 chain with A30H, A105H, A180H, A255H
B13: Recombinant immunoglobulin κ light chain binding protein KBP6 (designed binder)
chain: B1 chain with F32H, F107H, F182H, F257H
B14: Recombinant immunoglobulin κ light chain binding protein KBP7 (designed binder)
chain: B1 chain with G34H, G109H, G184H, G259H
B15: Recombinant immunoglobulin κ light chain binding protein KBP8 (designed binder)
chain: B1 chain with E38K, E113K, E188K, E263K

Molecular target: human IgG (IgG Sepharose 6 Fast Flow, GE Healthcare Biosciences Corp.) (human)
Experiment: IgG Sepharose 6 Fast Flow column; bound at neutral pH, eluted at pH 3.0 then pH 2.5; peak area A/(A+B)

First: B1
Second: B2
The Antibody dissociation rate (%) at pH 3.0 of the first is lower: 50% for the first, 95% for the second.

Going from B3 to B4, the Antibody dissociation rate (%) at pH 3.0 rises from 97% to 99%.

B5 and B6 are the same in Antibody dissociation rate (%) at pH 3.0: 100% for the first, 100% for the second.

Going from B7 to B8, the Antibody dissociation rate (%) at pH 3.0 falls from 100% to 95%.

Going from B9 to B10, the Antibody dissociation rate (%) at pH 3.0 falls from 98% to 95%.

Going from B11 to B12, the Antibody dissociation rate (%) at pH 3.0 falls from 95% to 92%.

First: B13
Second: B14
The Antibody dissociation rate (%) at pH 3.0 of the first is lower: 92% for the first, 97% for the second.

B15 showed an Antibody dissociation rate (%) at pH 3.0 of 80%.
